Measurements as given in patent US20230203158A1 (FLAGSHIP PIONEERING INNOVATIONS VII, published 2023).
Changes are numbered by the printed parent chain. Names may count otherwise. One block for each binder: values may come before it.

What was measured:
[1] = molecular target: IL-10 receptor of HEK-BLUE IL-10 cells (the cells express all the components of the IL-10 signaling pathway); assay: cell-based or functional assay
[2] = molecular target: T1, DSG1 stably expressed on HEK-BLUE IL-10 cells (called human DSG1; DSG1 gene NP_034209.2) (human, UniProt Q02413 50-1049); assay: cell-based or functional assay
T1 sequence (looked up): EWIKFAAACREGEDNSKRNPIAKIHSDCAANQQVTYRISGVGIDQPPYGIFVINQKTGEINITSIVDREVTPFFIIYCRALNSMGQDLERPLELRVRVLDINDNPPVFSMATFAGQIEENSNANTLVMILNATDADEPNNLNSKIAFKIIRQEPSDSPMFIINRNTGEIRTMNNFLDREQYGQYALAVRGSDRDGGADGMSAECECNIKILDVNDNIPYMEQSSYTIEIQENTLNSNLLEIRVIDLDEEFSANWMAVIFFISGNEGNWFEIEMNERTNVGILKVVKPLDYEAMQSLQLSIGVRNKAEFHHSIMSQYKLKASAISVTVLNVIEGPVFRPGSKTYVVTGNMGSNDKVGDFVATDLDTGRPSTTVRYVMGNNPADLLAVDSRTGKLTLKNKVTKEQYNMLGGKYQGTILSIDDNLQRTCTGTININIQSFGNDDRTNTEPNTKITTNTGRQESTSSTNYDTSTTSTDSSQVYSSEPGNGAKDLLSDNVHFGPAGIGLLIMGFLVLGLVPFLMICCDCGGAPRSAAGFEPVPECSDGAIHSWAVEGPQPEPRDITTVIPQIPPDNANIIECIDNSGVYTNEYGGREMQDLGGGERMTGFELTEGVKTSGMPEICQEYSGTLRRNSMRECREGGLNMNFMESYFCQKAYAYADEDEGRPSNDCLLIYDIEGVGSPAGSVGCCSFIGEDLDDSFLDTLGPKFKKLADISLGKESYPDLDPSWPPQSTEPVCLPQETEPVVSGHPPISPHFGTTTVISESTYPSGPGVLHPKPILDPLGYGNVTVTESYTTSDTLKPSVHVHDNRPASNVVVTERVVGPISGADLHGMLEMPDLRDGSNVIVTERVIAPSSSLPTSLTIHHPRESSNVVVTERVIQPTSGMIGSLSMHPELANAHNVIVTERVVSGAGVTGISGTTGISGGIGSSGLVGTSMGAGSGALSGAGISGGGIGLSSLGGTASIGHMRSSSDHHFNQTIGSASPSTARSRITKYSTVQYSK

[3] = molecular target: T2, recombinant His-tagged murine RAGE protein (ab276858 from Abcam) (murine, UniProt Q62151 23-342, limits assumed); assay: BLI, ANDbody on anti-human IgG Fc biosensors, murine RAGE at 150 nM then murine Notch2 NRR at 150 nM
T2 construct: also called murine RAGE antigen; not shown: His tag
Protocol: To test simultaneous dual antigen binding of the Notch2/RAGE ANDbodies by BLI, PRO051, PRO052 and PRO053, along with monovalent parental antibody controls were immobilized on anti-human IgG Fc biosensors and dipped into the recombinant His-tagged murine RAGE protein at 150 nM, followed by a second association step into wells containing recombinant murine Notch2 NRR at 150 nM to measure dual antigen binding. The dissociation rate was then measured by dipping the biosensors into buffer.

[4] = molecular target: T3, mouse CDH17 (NCBI accession NP 062727.1) with a c-Myc epitope tag at the C terminus, transiently expressed in … (mouse, UniProt Q9R100 26-827); assay: flow cytometry on RAW 264.7 cells transiently expressing mouse CDH17
T3 construct: whole, on cells; also called cadherin 17
T3 sequence (looked up): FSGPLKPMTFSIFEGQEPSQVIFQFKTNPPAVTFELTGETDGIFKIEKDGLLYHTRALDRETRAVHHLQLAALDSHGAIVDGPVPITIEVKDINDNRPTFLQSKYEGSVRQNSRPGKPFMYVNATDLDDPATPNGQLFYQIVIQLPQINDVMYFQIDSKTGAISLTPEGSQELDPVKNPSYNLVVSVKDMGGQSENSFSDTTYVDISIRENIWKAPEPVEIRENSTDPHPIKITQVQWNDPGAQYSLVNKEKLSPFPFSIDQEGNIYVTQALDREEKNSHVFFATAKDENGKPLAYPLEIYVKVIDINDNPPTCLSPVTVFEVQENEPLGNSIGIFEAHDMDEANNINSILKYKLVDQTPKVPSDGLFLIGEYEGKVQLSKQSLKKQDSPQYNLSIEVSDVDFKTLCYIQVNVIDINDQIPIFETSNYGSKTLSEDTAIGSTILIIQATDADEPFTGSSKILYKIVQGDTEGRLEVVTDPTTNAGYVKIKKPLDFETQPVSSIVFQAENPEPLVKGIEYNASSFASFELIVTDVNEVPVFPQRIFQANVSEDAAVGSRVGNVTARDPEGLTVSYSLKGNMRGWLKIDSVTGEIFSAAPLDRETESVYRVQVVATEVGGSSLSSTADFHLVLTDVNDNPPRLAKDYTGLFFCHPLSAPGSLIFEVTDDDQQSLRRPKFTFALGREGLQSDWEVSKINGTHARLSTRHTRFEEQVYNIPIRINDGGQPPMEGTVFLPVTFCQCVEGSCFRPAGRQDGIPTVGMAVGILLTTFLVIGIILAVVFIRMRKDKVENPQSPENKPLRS
Excerpt: To confirm binding activity and specificity, mouse CDH17 (NCBI accession NP 062727.1) with a c-Myc epitope tag at the protein C terminus was transiently expressed in RAW 264.7 cells using LIPOFECTAMINE™ 3000 (ThermoFisher Scientific) according to the manufacturer's protocol.

T2 sequence (Q62151 23-342 limits assumed): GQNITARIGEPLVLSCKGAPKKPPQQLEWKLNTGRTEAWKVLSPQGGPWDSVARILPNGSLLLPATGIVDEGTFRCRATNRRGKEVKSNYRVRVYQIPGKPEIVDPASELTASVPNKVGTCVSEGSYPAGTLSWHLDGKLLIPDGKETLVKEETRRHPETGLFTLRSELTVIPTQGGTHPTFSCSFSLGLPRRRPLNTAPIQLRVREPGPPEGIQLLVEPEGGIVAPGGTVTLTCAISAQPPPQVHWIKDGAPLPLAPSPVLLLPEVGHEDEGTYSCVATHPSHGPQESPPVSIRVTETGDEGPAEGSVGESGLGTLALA

B1: PRO026 (IL-10/DSG1 ANDbody: monomeric IL-10 replacing one Fab of the anti-DSG1 mAb) (other)
heavy: EVQLVESGGGLVQPGRSLRLSCAASGFTFDDYAMHWVRQAPGKGLEWVSGISWNSGSIDYADSVKGRFTISRDNAKNSLYLQMNSLRVEDTALYYCAKDGSRVFGVGGGFDFWGQGTMVTVSSASTKGPSVFPLAPSSKSTSGGTAALGCLVKDYFPEPVTVSWNSGALTSGVHTFPAVLQSSGLYSLSSVVTVPSSSLGTQTYICNVNHKPSNTKVDKKVEPKSCDKTHTCPPCPAPEAAGGPSVFLFPPKPKDTLMISRTPEVTCVVVDVSHEDPEVKFNWYVDGVEVHNAKTKPREEQYNSTYRVVSVLTVLHQDWLNGKEYKCKVSNKALGAPIEKTISKAKGQPREPQVYTLPPSRDELTKNQVKLTCLVKGFYPSDIAVEWESNGQPENNYKTTPPVLDSDGSFFLYSSLTVDKSRWQQGNVFSCSVMHEALHNHYTQKSLSLSPG
light: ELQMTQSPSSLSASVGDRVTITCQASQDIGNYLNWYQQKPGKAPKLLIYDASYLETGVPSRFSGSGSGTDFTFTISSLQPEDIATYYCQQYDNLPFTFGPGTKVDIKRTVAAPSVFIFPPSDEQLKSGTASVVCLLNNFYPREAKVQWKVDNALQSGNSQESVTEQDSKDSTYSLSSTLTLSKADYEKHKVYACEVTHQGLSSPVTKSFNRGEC
chain: SPGQGTQSENSCTHFPGNLPNMLRDLRDAFSRVKTFFQMKDQLDNLLLKESLLEDFKGYLGCQALSEMIQFYLEEVMPQAENQDPDIKAHVNSLGENLKTLRLRLRRCHRFLPCENGGGSGGKSKAVEQVKNAFNKLQEKGIYKAMSEFDIFINYIEAYMTMKIRNGGGGSGGGGSDKTHTCPPCPAPEAAGGPSVFLFPPKPKDTLMISRTPEVTCVVVDVSHEDPEVKFNWYVDGVEVHNAKTKPREEQYNSTYRVVSVLTVLHQDWLNGKEYKCKVSNKALGAPIEKTISKAKGQPREPQVYTLPPSRDELTKNQVSLTCLVSGFYPSDIAVEWESNGQPENNYKTTPPVLDSDGSFKLYSKLTVDKSRWQQGNVFSCSVMHEALHNHYTQKSLSLSPG
EC50 (pM), HEK-BLUE IL-10 signaling assay (SEAP) [1]: 750 pM

B3: PRO027 (IL-10/DSG1 ANDbody: IL-10 dimer replacing one Fab of the anti-DSG1 mAb) (other)
heavy: B1 heavy
light: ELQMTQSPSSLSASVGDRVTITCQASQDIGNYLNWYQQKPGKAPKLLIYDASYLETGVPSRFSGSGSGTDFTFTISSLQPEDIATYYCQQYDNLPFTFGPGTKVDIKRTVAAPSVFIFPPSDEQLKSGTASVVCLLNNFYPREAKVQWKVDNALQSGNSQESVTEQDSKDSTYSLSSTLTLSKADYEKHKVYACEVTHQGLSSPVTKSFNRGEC
chain: SPGQGTQSENSCTHFPGNLPNMLRDLRDAFSRVKTFFQMKDQLDNLLLKESLLEDFKGYLGCQALSEMIQFYLEEVMPQAENQDPDIKAHVNSLGENLKTLRLRLRRCHRFLPCENKSKAVEQVKNAFNKLQEKGIYKAMSEFDIFINYIEAYMTMKIRNGGGSGGGSPGQGTQSENSCTHFPGNLPNMLRDLRDAFSRVKTFFQMKDQLDNLLLKESLLEDFKGYLGCQALSEMIQFYLEEVMPQAENQDPDIKAHVNSLGENLKTLRLRLRRCHRFLPCENKSKAVEQVKNAFNKLQEKGIYKAMSEFDIFINYIEAYMTMKIRNGGGGSGGGGSDKTHTCPPCPAPEAAGGPSVFLFPPKPKDTLMISRTPEVTCVVVDVSHEDPEVKFNWYVDGVEVHNAKTKPREEQYNSTYRVVSVLTVLHQDWLNGKEYKCKVSNKALGAPIEKTISKAKGQPREPQVYTLPPSRDELTKNQVSLTCLVSGFYPSDIAVEWESNGQPENNYKTTPPVLDSDGSFKLYSKLTVDKSRWQQGNVFSCSVMHEALHNHYTQKSLSLSPG
EC50 (pM), HEK-BLUE IL-10 signaling assay (SEAP) [1]: 19 pM

B4: PRO052 (Notch2/RAGE ANDbody made by controlled Fab arm exchange of PRO035 K409R and PRO002 F405L) (bispecific antibody)
heavy 1: not shown
light 1: DIQMTQSPSSLSASVGDRVTITCRASQSNRRFLAWYQQKPGKAPKLLIYGASSRASGVPSRFSGSGSGTDFTLTISSLQPEDFATYYCQQYYISPLTFGQGTKVEIKRTVAAPSVFIFPPSDEQLKSGTASVVCLLNNFYPREAKVQWKVDNALQSGNSQESVTEQDSKDSTYSLSSTLTLSKADYEKHKVYACEVTHQGLSSPVTKSFNRGEC
heavy 2: not shown
light 2: DIQMTQSPSSLSASVGDRVTITCRASQDVGIYVNWFQQKPGKAPRRLIYRATNLADGVPSRFSGSRSGTDFTLTISSLQPEDFATYYCLEFDEHPLTFGGGTKVEIKRTVAAPSVFIFPPSDEQLKSGTASVVCLLNNFYPREAKVQWKVDNALQSGNSQESVTEQDSKDSTYSLSSTLTLSKADYEKHKVYACEVTHQGLSSPVTKSFNRGEC
notes: copies: 1 + 1 + 1 + 1
binding result [3]: binds

More lines, now with the values ahead:

increase in potency of IL-10 signaling (SEAP) on HEK-BLUE IL-10/DSG1 cells against parental HEK-BLUE IL-10 cells [2]: ~15 fold
B2: PRO058 (IL-10/DSG1 ANDbody in which monomeric IL-10 replaces one Fab of the anti-DSG1 mAb; functionally equivalent to PRO026, with a substitution in the Fc … (other)
heavy: B1 heavy
light: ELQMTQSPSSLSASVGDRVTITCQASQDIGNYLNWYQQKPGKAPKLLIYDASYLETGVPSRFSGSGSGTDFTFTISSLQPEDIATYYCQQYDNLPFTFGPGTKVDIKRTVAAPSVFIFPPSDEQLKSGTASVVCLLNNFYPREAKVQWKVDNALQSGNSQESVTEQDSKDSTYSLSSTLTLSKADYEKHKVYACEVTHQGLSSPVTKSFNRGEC
chain: B1 chain with H391R, Y392F

binding result [3]: binds
B5: PRO053 (Notch2/RAGE ANDbody made by controlled Fab arm exchange of PRO036 K409R and PRO002 F405L) (bispecific antibody)
heavy 1: not shown
light 1: B4 light 1 with N29V, R31S, G50R, S53I, L96W
heavy 2: not shown
light 2: B4 light 2
notes: copies: 1 + 1 + 1 + 1

binding result [3]: binds
B6: PRO051 (Notch2/RAGE ANDbody made by controlled Fab arm exchange of PRO034 K409R and PRO002 F405L) (bispecific antibody)
heavy 1: not shown
light 1: not shown
heavy 2: not shown
light 2: B4 light 2
notes: copies: 1 + 1 + 1 + 1

binding result [4]: binds
B7: PRO061 (anti-CDH17 antibody MAB8524 on a human IgG1 LALA-PG backbone, kappa light chain) (antibody, V domains shown)
VH: QSLEESGGRLVTPGTPLTLTCTVSGFSLTSYDMNWVRQAPGKGLEWIGVVRGSGRTYYASWAKGRFTIARTSSTTVDLKMTSLTTGDTATYFCARGDANNNYYEFDIWGPGTLVTVSS
VL: QDMTQTPSPVSAAVGGTVTINCQSSQSVYGDAWLSWFQQKPGQPPKLLIYSASTLASGVPSRFKGSGSGTQFTLTISDLESDDAATYYCAGGYDGINDIRAFGGGTEVVVKR
